Data reported in paper PMC9352680, “A comprehensive thermodynamic model for RNA binding by the Saccharomyces cerevisiae Pumilio protein PUF4”.

T1: PUF4 RNA-binding domain (Saccharomyces cerevisiae, UniProt P25339 537-888)
T1 sequence: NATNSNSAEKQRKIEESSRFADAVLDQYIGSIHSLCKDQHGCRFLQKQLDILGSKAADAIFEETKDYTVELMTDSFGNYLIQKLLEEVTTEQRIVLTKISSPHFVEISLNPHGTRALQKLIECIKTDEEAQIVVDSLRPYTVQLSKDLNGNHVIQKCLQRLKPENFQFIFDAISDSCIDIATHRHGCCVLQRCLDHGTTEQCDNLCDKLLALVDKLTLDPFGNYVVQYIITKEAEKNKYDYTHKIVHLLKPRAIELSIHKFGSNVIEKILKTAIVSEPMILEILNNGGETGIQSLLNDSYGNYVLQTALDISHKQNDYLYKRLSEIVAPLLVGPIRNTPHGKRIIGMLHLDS


target: T1, PUF4 RNA-binding domain; assay: Mg; RNA-MaP; 20 mM Na-HEPES pH 7.4, 30 mM KOAc, 0.75 mM MgCl2, 0.1% Tween-20, 5% glycerol, 0.1 mg/mL BSA, 2 mM DTT; 25 C; 0.0125-409.6 nM protein; conditions: tags: N-His6-TEV cleaved; C-SNAP kept, Cy3B-labelled; label: tethered on chip by stalled RNA polymerase

Binder	Kd [nM]
UCUCUUUGUAUAAUCAUCUCUU (ssRNA) [Ic_S1_P5E.1_K5.1_C5.1_H5.1_A5.1_[T6A]_F5.1_[T9C]_T5.1]	19.7
UCUCUUUGUAUCAUAAUCUCUU (ssRNA) [Ib_S1_P5E.1_K5.1_C5.1_H5.1_A5.1_[T6C]_F5.1_[T9A]_T5.1]	2.4
Id_ii_S2_P5E.4_K5.3_C5.2_[C-2A]_H5.3_A5.1_F5.1_T5.2_[T11C] (ssRNA) RNA: UUUGAUUAAUAUGAUAUCGUUCUUUCUAUACACUUAUUACAUUCUUUCUCGAUAUCAUAUUAAUCUUU	136
Id_ii_S2_P5E.4_K5.3_C5.2_H5.3_A5.1_F5.1_T5.2_[T11A]_[A12T] (ssRNA) RNA: UUUGAUUAAUAUGAUAUCGUUCUUUCUCUACACUUAUUAAUUUCUUUCUCGAUAUCAUAUUAAUCUUU	> 2300
Id_ii_S2_P5E.4_K5.3_C5.2_[T-1C]_H5.3_A5.1_F5.1_T5.2_[T11C] (ssRNA) RNA: UUUGAUUAAUAUGAUAUCGUUCUUUCUCCACACUUAUUACAUUCUUUCUCGAUAUCAUAUUAAUCUUU	> 2300
Id_ii_S2_P5E.4_K5.3_C5.2_H5.3_A5.1_F5.1_T5.2_[T11C]_[A12C] (ssRNA) RNA: UUUGAUUAAUAUGAUAUCGUUCUUUCUCUACACUUAUUACCUUCUUUCUCGAUAUCAUAUUAAUCUUU	> 2300
Id_ii_S2_P5E.4_K5.3_C5.2_[T-1C]_H5.3_A5.1_F5.1_T5.2_[A12C] (ssRNA) RNA: UUUGAUUAAUAUGAUAUCGUUCUUUCUCCACACUUAUUAUCUUCUUUCUCGAUAUCAUAUUAAUCUUU	> 2300
Id_ii_S2_P5E.4_K5.3_C5.2_[T-1G]_H5.3_A5.1_F5.1_T5.2_[T11C] (ssRNA) RNA: UUUGAUUAAUAUGAUAUCGUUCUUUCUCGACACUUAUUACAUUCUUUCUCGAUAUCAUAUUAAUCUUU	> 2300
Id_ii_S2_P5E.4_K5.3_C5.2_[T-1A]_H5.3_A5.1_F5.1_T5.2_[T11C]_[A12C] (ssRNA) RNA: UUUGAUUAAUAUGAUAUCGUUCUUUCUCAACACUUAUUACCUUCUUUCUCGAUAUCAUAUUAAUCUUU	> 2300
Id_ii_S2_P5E.4_K5.3_C5.2_[T-1G]_H5.3_A5.1_F5.1_T5.2_[T11C]_[A12T] (ssRNA) RNA: UUUGAUUAAUAUGAUAUCGUUCUUUCUCGACACUUAUUACUUUCUUUCUCGAUAUCAUAUUAAUCUUU	> 2300
Id_ii_S2_P5E.4_K5.3_C5.2_[C-2A]_H5.3_A5.1_F5.1_T5.2_[T11A] (ssRNA) RNA: UUUGAUUAAUAUGAUAUCGUUCUUUCUAUACACUUAUUAAAUUCUUUCUCGAUAUCAUAUUAAUCUUU	208
Id_ii_S2_P5E.4_K5.3_C5.2_[T-1C]_H5.3_A5.1_F5.1_T5.2_[A12T] (ssRNA) RNA: UUUGAUUAAUAUGAUAUCGUUCUUUCUCCACACUUAUUAUUUUCUUUCUCGAUAUCAUAUUAAUCUUU	1720
Id_ii_S2_P5E.4_K5.3_C5.2_[C-2A]_H5.3_A5.1_F5.1_T5.2 (ssRNA) RNA: UUUGAUUAAUAUGAUAUCGUUCUUUCUAUACACUUAUUAUAUUCUUUCUCGAUAUCAUAUUAAUCUUU	674
Id_ii_S2_P5E.4_K5.3_C5.2_[T-1C]_H5.3_A5.1_F5.1_T5.2 (ssRNA) RNA: UUUGAUUAAUAUGAUAUCGUUCUUUCUCCACACUUAUUAUAUUCUUUCUCGAUAUCAUAUUAAUCUUU	651
Id_ii_S2_P5E.4_K5.3_C5.2_H5.3_A5.1_F5.1_T5.2_[T11C]_[A12T] (ssRNA) RNA: UUUGAUUAAUAUGAUAUCGUUCUUUCUCUACACUUAUUACUUUCUUUCUCGAUAUCAUAUUAAUCUUU	> 2300
Id_ii_S2_P5E.4_K5.3_C5.2_H5.3_A5.1_F5.1_T5.2_[T11A]_[A12C] (ssRNA) RNA: UUUGAUUAAUAUGAUAUCGUUCUUUCUCUACACUUAUUAACUUCUUUCUCGAUAUCAUAUUAAUCUUU	> 2300
Id_ii_S2_P5E.4_K5.3_C5.2_[T-1A]_H5.3_A5.1_F5.1_T5.2_[T11A]_[A12T] (ssRNA) RNA: UUUGAUUAAUAUGAUAUCGUUCUUUCUCAACACUUAUUAAUUUCUUUCUCGAUAUCAUAUUAAUCUUU	> 2300
Id_ii_S2_P5E.4_K5.3_C5.2_[T-1A]_H5.3_A5.1_F5.1_T5.2 (ssRNA) RNA: UUUGAUUAAUAUGAUAUCGUUCUUUCUCAACACUUAUUAUAUUCUUUCUCGAUAUCAUAUUAAUCUUU	591
Id_ii_S2_P5E.4_K5.3_C5.2_[T-1C]_H5.3_A5.1_F5.1_T5.2_[T11C]_[A12C] (ssRNA) RNA: UUUGAUUAAUAUGAUAUCGUUCUUUCUCCACACUUAUUACCUUCUUUCUCGAUAUCAUAUUAAUCUUU	> 2300
Id_ii_S2_P5E.4_K5.3_C5.2_[T-1C]_H5.3_A5.1_F5.1_T5.2_[T11G]_[A12C] (ssRNA) RNA: UUUGAUUAAUAUGAUAUCGUUCUUUCUCCACACUUAUUAGCUUCUUUCUCGAUAUCAUAUUAAUCUUU	> 2300
Id_ii_S2_P5E.4_K5.3_C5.2_H5.3_A5.1_F5.1_T5.2_[T11C] (ssRNA) RNA: UUUGAUUAAUAUGAUAUCGUUCUUUCUCUACACUUAUUACAUUCUUUCUCGAUAUCAUAUUAAUCUUU	> 2300
Id_ii_S2_P5E.4_K5.3_C5.2_[C-2A]_H5.3_A5.1_F5.1_T5.2_[A12C] (ssRNA) RNA: UUUGAUUAAUAUGAUAUCGUUCUUUCUAUACACUUAUUAUCUUCUUUCUCGAUAUCAUAUUAAUCUUU	131
Id_ii_S2_P5E.4_K5.3_C5.2_[T-1G]_H5.3_A5.1_F5.1_T5.2_[A12T] (ssRNA) RNA: UUUGAUUAAUAUGAUAUCGUUCUUUCUCGACACUUAUUAUUUUCUUUCUCGAUAUCAUAUUAAUCUUU	> 2300

Binder	Kd [nM]
Id_ii_S2_P5E.4_K5.3_C5.2_[C-2A]_H5.3_A5.1_F5.1_T5.2_[A12T] (ssRNA) RNA: UUUGAUUAAUAUGAUAUCGUUCUUUCUAUACACUUAUUAUUUUCUUUCUCGAUAUCAUAUUAAUCUUU	97.8
Id_ii_S2_P5E.4_K5.3_C5.2_H5.3_A5.1_F5.1_T5.2_[T11G]_[A12C] (ssRNA) RNA: UUUGAUUAAUAUGAUAUCGUUCUUUCUCUACACUUAUUAGCUUCUUUCUCGAUAUCAUAUUAAUCUUU	> 2300
Id_ii_S2_P5E.4_K5.3_C5.2_[C-2A]_H5.3_A5.1_F5.1_T5.2_[A12G] (ssRNA) RNA: UUUGAUUAAUAUGAUAUCGUUCUUUCUAUACACUUAUUAUGUUCUUUCUCGAUAUCAUAUUAAUCUUU	1310
Id_ii_S2_P5E.4_K5.3_C5.2_[T-1G]_H5.3_A5.1_F5.1_T5.2_[A12C] (ssRNA) RNA: UUUGAUUAAUAUGAUAUCGUUCUUUCUCGACACUUAUUAUCUUCUUUCUCGAUAUCAUAUUAAUCUUU	> 2300
Id_ii_S2_P5E.4_K5.3_C5.2_[T-1A]_H5.3_A5.1_F5.1_T5.2_[T11C]_[A12T] (ssRNA) RNA: UUUGAUUAAUAUGAUAUCGUUCUUUCUCAACACUUAUUACUUUCUUUCUCGAUAUCAUAUUAAUCUUU	> 2300
Id_ii_S2_P5E.4_K5.3_C5.2_[T-1G]_H5.3_A5.1_F5.1_T5.2_[T11A]_[A12C] (ssRNA) RNA: UUUGAUUAAUAUGAUAUCGUUCUUUCUCGACACUUAUUAACUUCUUUCUCGAUAUCAUAUUAAUCUUU	> 2300
Id_ii_S2_P5E.4_K5.3_C5.2_[T-1A]_H5.3_A5.1_F5.1_T5.2_[T11C] (ssRNA) RNA: UUUGAUUAAUAUGAUAUCGUUCUUUCUCAACACUUAUUACAUUCUUUCUCGAUAUCAUAUUAAUCUUU	> 2300
Id_ii_S2_P5E.4_K5.3_C5.2_[T-1A]_H5.3_A5.1_F5.1_T5.2_[A12T] (ssRNA) RNA: UUUGAUUAAUAUGAUAUCGUUCUUUCUCAACACUUAUUAUUUUCUUUCUCGAUAUCAUAUUAAUCUUU	> 2300
Id_ii_S2_P5E.4_K5.3_C5.2_[T-1A]_H5.3_A5.1_F5.1_T5.2_[T11C]_[A12G] (ssRNA) RNA: UUUGAUUAAUAUGAUAUCGUUCUUUCUCAACACUUAUUACGUUCUUUCUCGAUAUCAUAUUAAUCUUU	> 2300
Id_ii_S2_P5E.4_K5.3_C5.2_[T-1A]_H5.3_A5.1_F5.1_T5.2_[A12C] (ssRNA) RNA: UUUGAUUAAUAUGAUAUCGUUCUUUCUCAACACUUAUUAUCUUCUUUCUCGAUAUCAUAUUAAUCUUU	> 2300
Id_ii_S2_P5E.4_K5.3_C5.2_H5.3_A5.1_F5.1_T5.2_[A12C] (ssRNA) RNA: UUUGAUUAAUAUGAUAUCGUUCUUUCUCUACACUUAUUAUCUUCUUUCUCGAUAUCAUAUUAAUCUUU	> 2300
Id_ii_S2_P5E.4_K5.3_C5.2_H5.3_A5.1_F5.1_T5.2_[A12T] (ssRNA) RNA: UUUGAUUAAUAUGAUAUCGUUCUUUCUCUACACUUAUUAUUUUCUUUCUCGAUAUCAUAUUAAUCUUU	2240
Id_ii_S2_P5E.4_K5.3_C5.2_[C-2A]_H5.3_A5.1_F5.1_T5.2_[T11A]_[A12T] (ssRNA) RNA: UUUGAUUAAUAUGAUAUCGUUCUUUCUAUACACUUAUUAAUUUCUUUCUCGAUAUCAUAUUAAUCUUU	129
Id_ii_S2_P5E.4_K5.3_C5.2_[T-1C]_H5.3_A5.1_F5.1_T5.2_[T11A] (ssRNA) RNA: UUUGAUUAAUAUGAUAUCGUUCUUUCUCCACACUUAUUAAAUUCUUUCUCGAUAUCAUAUUAAUCUUU	> 2300
Id_ii_S2_P5E.4_K5.3_C5.2_[T-1G]_H5.3_A5.1_F5.1_T5.2 (ssRNA) RNA: UUUGAUUAAUAUGAUAUCGUUCUUUCUCGACACUUAUUAUAUUCUUUCUCGAUAUCAUAUUAAUCUUU	831
Id_ii_S2_P5E.4_K5.3_C5.2_H5.3_A5.1_F5.1_T5.2 (ssRNA) RNA: UUUGAUUAAUAUGAUAUCGUUCUUUCUCUACACUUAUUAUAUUCUUUCUCGAUAUCAUAUUAAUCUUU	548
Id_ii_S2_P5E.4_K5.3_C5.2_[C-2A]_H5.3_A5.1_F5.1_T5.2_[T11A]_[A12C] (ssRNA) RNA: UUUGAUUAAUAUGAUAUCGUUCUUUCUAUACACUUAUUAACUUCUUUCUCGAUAUCAUAUUAAUCUUU	161
Id_ii_S2_P5E.4_K5.3_C5.2_[T-1C]_H5.3_A5.1_F5.1_T5.2_[T11C]_[A12G] (ssRNA) RNA: UUUGAUUAAUAUGAUAUCGUUCUUUCUCCACACUUAUUACGUUCUUUCUCGAUAUCAUAUUAAUCUUU	> 2300
UCUCUUUGUAUUCUGAUCUCUU (ssRNA) [Ib_S1_P5E.1_K5.1_C5.1_H5.1_A5.1_[A7C]_F5.1_[T9G]_T5.1]	60.1
UCUCUUUGUAUAAUAAUCUCUU (ssRNA) [Ib_S1_P5E.1_K5.1_C5.1_H5.1_A5.1_[T6A]_F5.1_[T9A]_T5.1]	1.68
ACAAACGGUAUAUAUAACACAAAC (ssRNA) [Id_ii_S3_P3E.3_K3.2_C3.2_[C-2G]_[T-1G]_H3.2_A3.1_F3.1_T3.2_[T9A]_[A10C]]	509
ACAAACGGUAUAUAUAGAACAAAC (ssRNA) [Id_ii_S3_P3E.3_K3.2_C3.2_[C-2G]_[T-1G]_H3.2_A3.1_F3.1_T3.2_[T9G]]	128
UCUCUUUGUUUUAUUAUCUCUU (ssRNA) [Ia_S1_P5E.1_K5.1_C5.1_H5.1_[A4T]_A5.1_F5.1_T5.1]	24.7
